From patent US20180155451A1 (published 2018)

B1: GpH7-A5/GpH7-B3 variant E269_15Y/GpL16-k0 (antibody, human IgG1, kappa)
heavy 1: not shown
heavy 2: not shown
light: DIVMTQSPLSLPVTPGEPASISCQASESLVHSNRNTYLHWYLQKPGQSPQLLIYKVSNRFSGVPDRFSGSGSGTDFTLKISRVEAEDVGVYYCSQNTHVPPTFGQGTKVEIERTVAAPSVFIFPPSDEQLKSGTASVVCLLNNFYPREAKVQWKVDNALQSGNSQESVTEQDSKDSTYSLSSTLTLSKADYEKHKVYACEVTHQGLSSPVTKSFNRGEC
notes: Heterodimerized IgG1; mutation only in the GpH7-B3 chain; also called He Ab
B2: GpH7-A5/GpH7-B3 variant Y300_03V/GpL16-k0 (antibody, human IgG1, kappa)
heavy 1: not shown
heavy 2: not shown
light: B1 light
notes: as for B1
B3: GpH7-A5/GpH7-B3 variant P271_20W/GpL16-k0 (antibody, human IgG1, kappa)
heavy 1: not shown
heavy 2: not shown
light: B1 light
notes: as for B1
B4: GpH7-A5/GpH7-B3 variant Q295_03V/GpL16-k0 (antibody, human IgG1, kappa)
heavy 1: not shown
heavy 2: not shown
light: B1 light
notes: as for B1
B5: GpH7-A5/GpH7-B3 variant Q295_11K/GpL16-k0 (antibody, human IgG1, kappa)
heavy 1: not shown
heavy 2: not shown
light: B1 light
notes: as for B1
B6: GpH7-A5/GpH7-B3 variant S298_18N/GpL16-k0 (antibody, human IgG1, kappa)
heavy 1: not shown
heavy 2: not shown
light: B1 light
notes: as for B1
B7: GpH7-A5/GpH7-B3 variant Y300_07I/GpL16-k0 (antibody, human IgG1, kappa)
heavy 1: not shown
heavy 2: not shown
light: B1 light
notes: as for B1
B8: GpH7-A5/GpH7-B3 variant S298_16H/GpL16-k0 (antibody, human IgG1, kappa)
heavy 1: not shown
heavy 2: not shown
light: B1 light
notes: as for B1
B9: GpH7-A5/GpH7-B3 variant Q295_12R/GpL16-k0 (antibody, human IgG1, kappa)
heavy 1: not shown
heavy 2: not shown
light: B1 light
notes: as for B1
B10: GpH7-A5/GpH7-B3 variant Y300_02A/GpL16-k0 (antibody, human IgG1, kappa)
heavy 1: not shown
heavy 2: not shown
light: B1 light
notes: as for B1
B11: GpH7-A5/GpH7-B3 variant S298_14T/GpL16-k0 (antibody, human IgG1, kappa)
heavy 1: not shown
heavy 2: not shown
light: B1 light
notes: as for B1
B12: GpH7-A5/GpH7-B3 variant Y300_01G/GpL16-k0 (antibody, human IgG1, kappa)
heavy 1: not shown
heavy 2: not shown
light: B1 light
notes: as for B1
B13: GpH7-A5/GpH7-B3 variant Q295_05P/GpL16-k0 (antibody, human IgG1, kappa)
heavy 1: not shown
heavy 2: not shown
light: B1 light
notes: as for B1
B14: GpH7-A5/GpH7-B3 variant S298_19Q/GpL16-k0 (antibody, human IgG1, kappa)
heavy 1: not shown
heavy 2: not shown
light: B1 light
notes: as for B1
B15: GpH7-A5/GpH7-B3 variant Q295_16H/GpL16-k0 (antibody, human IgG1, kappa)
heavy 1: not shown
heavy 2: not shown
light: B1 light
notes: as for B1
B16: GpH7-A5/GpH7-B3 variant Q295_13S/GpL16-k0 (antibody, human IgG1, kappa)
heavy 1: not shown
heavy 2: not shown
light: B1 light
notes: as for B1
B17: GpH7-A5/GpH7-B3 variant P271_15Y/GpL16-k0 (antibody, human IgG1, kappa)
heavy 1: not shown
heavy 2: not shown
light: B1 light
notes: as for B1
B18: GpH7-A5/GpH7-B3 variant S298_20W/GpL16-k0 (antibody, human IgG1, kappa)
heavy 1: not shown
heavy 2: not shown
light: B1 light
notes: as for B1
B19: GpH7-A5/GpH7-B3 variant E269_19Q/GpL16-k0 (antibody, human IgG1, kappa)
heavy 1: not shown
heavy 2: not shown
light: B1 light
notes: as for B1

These binders were tested against T1, FcγRIIa H (FcγRIIa, type H allotype, His at position 131), extracellular domain with C-terminal His tag (human, UniProt P12318 34-217) (assay: ratio of He/Con_2aH to He/Con_2b (FcγRIIa H over FcγRIIb), SPR).
T1 construct: extracellular domain; Soluble receptor expressed in FreeStyle293 cells; analyte in Biacore; also called FcgRIIa H; 2aH; not shown: C-terminal His tag
T1 sequence (looked up): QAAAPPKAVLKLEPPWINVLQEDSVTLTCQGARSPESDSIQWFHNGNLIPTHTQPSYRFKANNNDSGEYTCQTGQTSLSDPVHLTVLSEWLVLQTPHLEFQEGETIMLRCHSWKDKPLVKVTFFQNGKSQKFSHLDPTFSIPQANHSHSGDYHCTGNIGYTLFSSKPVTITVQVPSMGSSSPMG

| Binder | He_2aH/2b (IIaH/IIb) |
| --- | --- |
| B1 | 1.57 |
| B2 | 1.33 |
| B3 | 1.33 |
| B4 | 1.22 |
| B5 | 1.27 |
| B6 | 1.28 |
| B7 | 1.45 |
| B8 | 1.29 |
| B9 | 1.29 |
| B10 | 1.35 |
| B11 | 1.26 |
| B12 | 1.54 |
| B13 | 1.53 |
| B14 | 1.24 |
| B15 | 1.25 |
| B16 | 1.22 |
| B17 | 1.24 |
| B18 | 1.21 |
| B19 | 1.81 |

These binders were tested against T1, FcγRIIa H (FcγRIIa, type H allotype, …) (assay: SPR (Biacore), captured antibody, FcγR as analyte).

| Binder | He/Con_2aH |
| --- | --- |
| B1 | 70.4 relative, GpH7-A5/GpH7-B3/GpL16-k0 = 100 |
| B2 | 98 relative, GpH7-A5/GpH7-B3/GpL16-k0 = 100 |
| B3 | 77.4 relative, GpH7-A5/GpH7-B3/GpL16-k0 = 100 |
| B4 | 92 relative, GpH7-A5/GpH7-B3/GpL16-k0 = 100 |
| B5 | 89.4 relative, GpH7-A5/GpH7-B3/GpL16-k0 = 100 |
| B6 | 61.6 relative, GpH7-A5/GpH7-B3/GpL16-k0 = 100 |
| B7 | 108 relative, GpH7-A5/GpH7-B3/GpL16-k0 = 100 |
| B8 | 82.1 relative, GpH7-A5/GpH7-B3/GpL16-k0 = 100 |
| B9 | 84.1 relative, GpH7-A5/GpH7-B3/GpL16-k0 = 100 |
| B10 | 93.5 relative, GpH7-A5/GpH7-B3/GpL16-k0 = 100 |
| B11 | 98.5 relative, GpH7-A5/GpH7-B3/GpL16-k0 = 100 |
| B12 | 74.4 relative, GpH7-A5/GpH7-B3/GpL16-k0 = 100 |
| B13 | 103 relative, GpH7-A5/GpH7-B3/GpL16-k0 = 100 |
| B14 | 91 relative, GpH7-A5/GpH7-B3/GpL16-k0 = 100 |
| B15 | 78.6 relative, GpH7-A5/GpH7-B3/GpL16-k0 = 100 |
| B16 | 69.4 relative, GpH7-A5/GpH7-B3/GpL16-k0 = 100 |
| B17 | 64.6 relative, GpH7-A5/GpH7-B3/GpL16-k0 = 100 |
| B18 | 49.9 relative, GpH7-A5/GpH7-B3/GpL16-k0 = 100 |
| B19 | 80.2 relative, GpH7-A5/GpH7-B3/GpL16-k0 = 100 |

What follows are binders tested against T2, FcγRIIb, extracellular domain with C-terminal His tag (human, UniProt P31994 43-217) (assay: SPR (Biacore), captured antibody, FcγR as analyte).
T2 construct: extracellular domain; Soluble receptor expressed in FreeStyle293 cells; analyte in Biacore; also called FcgRIIb; 2b; not shown: C-terminal His tag
T2 sequence (looked up): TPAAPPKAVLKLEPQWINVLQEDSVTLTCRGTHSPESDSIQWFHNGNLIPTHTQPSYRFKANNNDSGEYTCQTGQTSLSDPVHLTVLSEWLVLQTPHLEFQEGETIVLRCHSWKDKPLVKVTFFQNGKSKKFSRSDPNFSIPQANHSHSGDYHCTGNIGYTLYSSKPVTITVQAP

| Binder | He/Con_2b |
| --- | --- |
| B1 | 44.7 relative, GpH7-A5/GpH7-B3/GpL16-k0 = 100 |
| B2 | 73.9 relative, GpH7-A5/GpH7-B3/GpL16-k0 = 100 |
| B3 | 58.1 relative, GpH7-A5/GpH7-B3/GpL16-k0 = 100 |
| B4 | 75.7 relative, GpH7-A5/GpH7-B3/GpL16-k0 = 100 |
| B5 | 70.4 relative, GpH7-A5/GpH7-B3/GpL16-k0 = 100 |
| B6 | 48.1 relative, GpH7-A5/GpH7-B3/GpL16-k0 = 100 |
| B7 | 74.5 relative, GpH7-A5/GpH7-B3/GpL16-k0 = 100 |
| B8 | 63.5 relative, GpH7-A5/GpH7-B3/GpL16-k0 = 100 |
| B9 | 65.2 relative, GpH7-A5/GpH7-B3/GpL16-k0 = 100 |
| B10 | 69.2 relative, GpH7-A5/GpH7-B3/GpL16-k0 = 100 |
| B11 | 77.9 relative, GpH7-A5/GpH7-B3/GpL16-k0 = 100 |
| B12 | 48.4 relative, GpH7-A5/GpH7-B3/GpL16-k0 = 100 |
| B13 | 67.5 relative, GpH7-A5/GpH7-B3/GpL16-k0 = 100 |
| B14 | 73.3 relative, GpH7-A5/GpH7-B3/GpL16-k0 = 100 |
| B15 | 62.7 relative, GpH7-A5/GpH7-B3/GpL16-k0 = 100 |
| B16 | 56.9 relative, GpH7-A5/GpH7-B3/GpL16-k0 = 100 |
| B17 | 52.3 relative, GpH7-A5/GpH7-B3/GpL16-k0 = 100 |
| B18 | 41.1 relative, GpH7-A5/GpH7-B3/GpL16-k0 = 100 |
| B19 | 44.3 relative, GpH7-A5/GpH7-B3/GpL16-k0 = 100 |
